Assay results published in WO2019109974A1 (dated 2019).

Experiments:
[1] = target: T1, PD-L1 on U2OS cells stably expressing PD-L1 (UniProt Q9NZQ7 19-290, limits assumed); test: flow cytometry on PD-L1-U2OS cells, competitor biotin PD-1 protein, MFI
T1 construct: whole, on cells; also called PD-L1-U2OS; U2OS PD-L1细胞

[2] = target: PD-L1抗原 (PD-L1 antigen coated in detection method 1.2) (human, UniProt Q9NZQ7 19-238, limits assumed); test: competition ELISA: PD-L1 antigen coated, competitor biotin PD-1-mFc
Chain of PD-L1抗原 (PD-L1 antigen coated in detection method 1.2) (Q9NZQ7 19-238 limits assumed): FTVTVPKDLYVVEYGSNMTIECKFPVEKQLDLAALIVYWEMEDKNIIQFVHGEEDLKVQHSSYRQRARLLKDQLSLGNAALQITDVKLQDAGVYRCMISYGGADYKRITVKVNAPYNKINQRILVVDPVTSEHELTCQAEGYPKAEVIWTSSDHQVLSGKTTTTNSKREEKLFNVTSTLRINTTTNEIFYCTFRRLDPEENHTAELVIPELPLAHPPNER

hPD-L1(ECD)-mFc = target: T2, hPD-L1(ECD)-mFc (human); test: ELISA, hPD-L1-mFc coated
T2 construct: Human PD-L1 extracellular domain fused to a mouse antibody heavy chain Fc tag; also called hPD-L1-mFc; PD-L1-mFc
T2 sequence (chain, as listed by the source limits assumed): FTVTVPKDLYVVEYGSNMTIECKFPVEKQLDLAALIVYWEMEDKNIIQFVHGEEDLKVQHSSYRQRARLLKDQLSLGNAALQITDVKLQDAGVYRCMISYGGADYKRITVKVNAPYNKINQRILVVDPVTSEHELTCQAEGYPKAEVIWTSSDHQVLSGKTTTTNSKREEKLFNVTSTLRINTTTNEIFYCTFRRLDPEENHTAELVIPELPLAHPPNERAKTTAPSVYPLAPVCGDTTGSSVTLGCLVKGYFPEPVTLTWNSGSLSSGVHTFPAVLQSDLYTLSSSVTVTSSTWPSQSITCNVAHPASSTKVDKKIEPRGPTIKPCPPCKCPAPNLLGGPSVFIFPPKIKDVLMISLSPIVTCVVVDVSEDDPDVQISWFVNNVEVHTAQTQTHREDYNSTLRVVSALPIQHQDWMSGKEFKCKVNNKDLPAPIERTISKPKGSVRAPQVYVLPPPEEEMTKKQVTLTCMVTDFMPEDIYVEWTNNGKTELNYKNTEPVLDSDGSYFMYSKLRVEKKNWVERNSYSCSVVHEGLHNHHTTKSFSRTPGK

[3] = target: T3, 人PD-L1抗原 (hPD-L1-his, Sino biological 10084-H08H-200) (human, UniProt Q9NZQ7 19-239); test: SPR (Biacore T200), antibody captured by anti-human antibody on CM5, PD-L1-his as analyte, 1:1 Langmuir fit
T3 construct: Bought analyte of the Biacore assay; also called human PD-L1 antigen
T3 sequence (Q9NZQ7 19-239 limits assumed): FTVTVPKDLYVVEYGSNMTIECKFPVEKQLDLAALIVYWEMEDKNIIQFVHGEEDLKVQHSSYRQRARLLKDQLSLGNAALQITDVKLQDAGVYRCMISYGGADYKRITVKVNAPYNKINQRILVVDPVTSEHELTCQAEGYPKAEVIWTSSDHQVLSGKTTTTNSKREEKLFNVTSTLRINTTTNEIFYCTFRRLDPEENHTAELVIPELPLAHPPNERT

T1 sequence (Q9NZQ7 19-290 limits assumed): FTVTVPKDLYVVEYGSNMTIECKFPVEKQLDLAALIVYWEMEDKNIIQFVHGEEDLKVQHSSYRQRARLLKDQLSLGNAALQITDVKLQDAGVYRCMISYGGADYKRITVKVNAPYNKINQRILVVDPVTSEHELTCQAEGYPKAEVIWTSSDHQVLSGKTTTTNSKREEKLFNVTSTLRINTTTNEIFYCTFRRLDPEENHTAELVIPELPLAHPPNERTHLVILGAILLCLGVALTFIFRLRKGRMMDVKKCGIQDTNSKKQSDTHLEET

B1: 嵌合抗体2-1(Chi2-1) chimeric antibody 2-1 (antibody, human IgG1, kappa, V domains shown)
VH: QVQLQQPGAELVRPGASVKLSCKASGYSFTFYWMNWVKQRPGQGLEWIGMIHPSDSETRLNQKFKDKATLTVDKSSSTAYMQLSSPTSEDTAVYYCVRNMVWSRQVMDYWGQGTSVTVSS
VL: DVVMTQTPLTLSVTIGQPASISCKSSQSLLDSDGNTYLNWLLQRPGESPKLLLYLVSKLDSGVPDRFTGSGSGTDFTLKIGRVEAADLGVYYCLQSTHFPYTFGGGTKLEIKR
notes: Mouse variable regions joined to human IgG1 and human kappa constant regions
[1]
  IC50: 0.248 µg/mL
[2]
  IC50: 0.462 µg/mL
hPD-L1(ECD)-mFc
  EC50: 0.145 µg/mL

B2: hu-Chi1-3.4 (antibody, human IgG1, kappa, V domains shown)
VH: QVQLQESGPGLVKPSQTLSLTCTVSGYSITSDYWNWIRQHPGKGLEYIGYISYTGSTYYNPSLKSRVTISRDTSKNQFSLKLSSVTAADTAVYYCARGEAWDRRTLDYWGQGTLVTVSS
VL: DFQMTQSPSSLSASVGDRVTITCRASQDITNYLNWYQQKPDKAVKLLIYYTSRLHSGVPSRFSGSGSGTDFTLTISSLQPEDFATYYCQQVYTLPWTFGQGTKLEIKR
notes: also called Chi1_VH.1D / Chi1_VL.1C
[3]
  Kd: 0.799 nM

B3: 嵌合抗体Chi2-2 chimeric antibody Chi2-2 (antibody, human IgG1, kappa, V domains shown)
VH: QVQLQQPGAELVRPGASVNLSCKTSGYSFTSYWMNWVKQRPGQGLEWIGMIHPSDSETWLNQKFKDKATLTVDKSSSTVHMQLSSPTSEDSAVFYCVRSMVWTRHVMDYWGQGTSVTVSS
VL: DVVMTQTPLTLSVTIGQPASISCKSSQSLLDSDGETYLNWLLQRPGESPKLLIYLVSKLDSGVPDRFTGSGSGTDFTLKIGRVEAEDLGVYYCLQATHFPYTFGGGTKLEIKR
notes: as for B1
[1]
  IC50: 2.17 µg/mL
[2]
  IC50: 1.44 µg/mL

B4: 嵌合抗体1(Chi1) chimeric antibody 1 (antibody, human IgG1, kappa, V domains shown)
VH: EVQLQESGPGLAKPSQTLSLTCSVTGYSITSDYWNWIRRFPGNKLEYMGYISYTGSTYYNPSLKSRISITRDTSKNQYYLQLKSVTTEDTATYYCARGEAWDRRTLDCWGQGTSVTVSS
VL: DFQMTQTTSSLSASLGDRVTISCRASQDITNYLNWYQQKPDGTVKLLIYYTSRLHSGVPSRFSGSGSGSDYALTISNLEQEDIATYFCQQVYTLPWTFGRGTKLEIKR
notes: expressed in ExpiCHO; also called 母本嵌合抗体
[1]
  IC50: 0.195 µg/mL
[2]
  IC50: 0.514 µg/mL
[3]
  Kd: 0.674 nM
hPD-L1(ECD)-mFc
  EC50: 0.107 µg/mL
